Laboratory results as given in patent US20180273587A1 (AILERON THERAPEUTICS, published 2018).
Starred links: 1 amine or outer side, 2 acyl side, 3 side chain; linkers in the order of their positions; H or OH if unused. Positions of bridges follow the written chain, without caps; N, C: chain ends. Non-standard residues stand in square brackets, D forms with d. hhL = hhLeu, CC(C)CCC[C@H](N[*:1])C(=O)[*:2]; Phe(4-F) = N[C@@H](Cc1ccc(F)cc1)C(=O)O; 2Nal = N[C@@H](Cc1ccc2ccccc2c1)C(=O)O; tBuAla = CC(C)(C)C[C@H](N)C(=O)O; R8 = C=CCCCCCC[C@@](C)(N)C(=O)O; Cha = N[C@@H](CC1CCCCC1)C(=O)O; αMeL = CC(C)C[C@](C)(N)C(=O)O; Cba = N[C@@H](CC1CCC1)C(=O)O; Chg = N[C@H](C(=O)O)C1CCCCC1; hLeu = CC(C)CC[C@H](N)C(=O)O; S5 = C=CCCC[C@](C)(N)C(=O)O

Tests used:
Test in all cases: Ki table, method not stated
MCL-1 = target: T1, MCL-1 (UniProt Q07820 172-327, limits assumed)
T1 construct: also called Myeloid cell leukemia 1
T1 sequence (Q07820 172-327 limits assumed): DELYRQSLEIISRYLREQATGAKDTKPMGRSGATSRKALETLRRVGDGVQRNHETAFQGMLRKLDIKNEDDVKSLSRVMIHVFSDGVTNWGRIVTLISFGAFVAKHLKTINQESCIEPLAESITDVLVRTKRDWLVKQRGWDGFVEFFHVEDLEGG

BCL-2 = BCL-2 (UniProt P10415 1-217, limits assumed)
Chain of BCL-2 (P10415 1-217 limits assumed): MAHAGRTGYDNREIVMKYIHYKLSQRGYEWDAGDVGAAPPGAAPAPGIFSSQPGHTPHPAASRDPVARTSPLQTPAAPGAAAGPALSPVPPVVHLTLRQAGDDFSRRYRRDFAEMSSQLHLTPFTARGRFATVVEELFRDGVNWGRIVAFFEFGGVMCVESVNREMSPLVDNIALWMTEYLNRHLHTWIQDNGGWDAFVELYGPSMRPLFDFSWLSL

BCL-XL = BCL-XL (UniProt Q07817 1-209)
Chain of BCL-XL (Q07817 1-209): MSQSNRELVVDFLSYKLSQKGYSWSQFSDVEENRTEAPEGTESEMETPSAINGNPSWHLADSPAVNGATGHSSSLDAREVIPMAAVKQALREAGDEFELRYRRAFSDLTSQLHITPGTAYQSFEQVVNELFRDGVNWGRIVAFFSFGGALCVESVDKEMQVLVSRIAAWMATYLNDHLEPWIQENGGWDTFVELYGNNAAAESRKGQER

Binder	Ki (MCL-1) [nM]	Ki (BCL-2) [nM]	Ki (BCL-XL) [nM]
Ac-IWIAQA[2Nal]R[R8]IGDAFN[S5]YYA-NH2 (staple 9-16; SMILES CC[C@H](C)[C@H](NC(C)=O)C(=O)N[C@@H](Cc1c[nH]c2ccccc12)C(=O)N[C@H](C(=O)N[C@@H](C)C(=O)N[C@@H](CCC(N)=O)C(=O)N[C@@H](C)C(=O)N[C@@H](Cc1ccc2ccccc2c1)C(=O)N[C@@H](CCCNC(=N)N)C(=O)N[C@]1(C)CCCCCCC=CCCC[C@@](C)(C(=O)N[C@@H](Cc2ccc(O)cc2)C(=O)N[C@@H](Cc2ccc(O)cc2)C(=O)N[C@@H](C)C(N)=O)NC(=O)[C@H](CC(N)=O)NC(=O)[C@H](Cc2ccccc2)NC(=O)[C@H](C)NC(=O)[C@H](CC(=O)O)NC(=O)CNC(=O)[C@H]([C@@H](C)CC)NC1=O)[C@@H](C)CC, also called Ac-IWIAQA2NalR$r8IGDAFN$YYA-NH2) [SEQ ID NO: 1696]	120	234	17.3
Ac-IWIAQALR[R8][hLeu]GDAFN[S5]YYA-NH2 (staple 9-16; SMILES CC[C@H](C)[C@H](NC(C)=O)C(=O)N[C@@H](Cc1c[nH]c2ccccc12)C(=O)N[C@H](C(=O)N[C@@H](C)C(=O)N[C@@H](CCC(N)=O)C(=O)N[C@@H](C)C(=O)N[C@@H](CC(C)C)C(=O)N[C@@H](CCCNC(=N)N)C(=O)N[C@]1(C)CCCCCCC=CCCC[C@@](C)(C(=O)N[C@@H](Cc2ccc(O)cc2)C(=O)N[C@@H](Cc2ccc(O)cc2)C(=O)N[C@@H](C)C(N)=O)NC(=O)[C@H](CC(N)=O)NC(=O)[C@H](Cc2ccccc2)NC(=O)[C@H](C)NC(=O)[C@H](CC(=O)O)NC(=O)CNC(=O)[C@H](CCC(C)C)NC1=O)[C@@H](C)CC) [SEQ ID NO: 1699]	13	12.7	6
Ac-IWIAQALR[R8][Cba]GDAFN[S5]YYA-NH2 (staple 9-16; SMILES CC[C@H](C)[C@H](NC(C)=O)C(=O)N[C@@H](Cc1c[nH]c2ccccc12)C(=O)N[C@H](C(=O)N[C@@H](C)C(=O)N[C@@H](CCC(N)=O)C(=O)N[C@@H](C)C(=O)N[C@@H](CC(C)C)C(=O)N[C@@H](CCCNC(=N)N)C(=O)N[C@]1(C)CCCCCCC=CCCC[C@@](C)(C(=O)N[C@@H](Cc2ccc(O)cc2)C(=O)N[C@@H](Cc2ccc(O)cc2)C(=O)N[C@@H](C)C(N)=O)NC(=O)[C@H](CC(N)=O)NC(=O)[C@H](Cc2ccccc2)NC(=O)[C@H](C)NC(=O)[C@H](CC(=O)O)NC(=O)CNC(=O)[C@H](CC2CCC2)NC1=O)[C@@H](C)CC) [SEQ ID NO: 1698]	26.6	89	27.5
Ac-IWIAQALR[R8][Cha]GDAFN[S5]YYA-NH2 (staple 9-16; SMILES CC[C@H](C)[C@H](NC(C)=O)C(=O)N[C@@H](Cc1c[nH]c2ccccc12)C(=O)N[C@H](C(=O)N[C@@H](C)C(=O)N[C@@H](CCC(N)=O)C(=O)N[C@@H](C)C(=O)N[C@@H](CC(C)C)C(=O)N[C@@H](CCCNC(=N)N)C(=O)N[C@]1(C)CCCCCCC=CCCC[C@@](C)(C(=O)N[C@@H](Cc2ccc(O)cc2)C(=O)N[C@@H](Cc2ccc(O)cc2)C(=O)N[C@@H](C)C(N)=O)NC(=O)[C@H](CC(N)=O)NC(=O)[C@H](Cc2ccccc2)NC(=O)[C@H](C)NC(=O)[C@H](CC(=O)O)NC(=O)CNC(=O)[C@H](CC2CCCCC2)NC1=O)[C@@H](C)CC) [SEQ ID NO: 1700]	15.9	109	7.1
Ac-IWIAQALR[R8][tBuAla]GDAFN[S5]YYA-NH2 (staple 9-16; SMILES CC[C@H](C)[C@H](NC(C)=O)C(=O)N[C@@H](Cc1c[nH]c2ccccc12)C(=O)N[C@H](C(=O)N[C@@H](C)C(=O)N[C@@H](CCC(N)=O)C(=O)N[C@@H](C)C(=O)N[C@@H](CC(C)C)C(=O)N[C@@H](CCCNC(=N)N)C(=O)N[C@]1(C)CCCCCCC=CCCC[C@@](C)(C(=O)N[C@@H](Cc2ccc(O)cc2)C(=O)N[C@@H](Cc2ccc(O)cc2)C(=O)N[C@@H](C)C(N)=O)NC(=O)[C@H](CC(N)=O)NC(=O)[C@H](Cc2ccccc2)NC(=O)[C@H](C)NC(=O)[C@H](CC(=O)O)NC(=O)CNC(=O)[C@H](CC(C)(C)C)NC1=O)[C@@H](C)CC) [SEQ ID NO: 1701]	13.7	227	35.4

Second part, the binder after the results:

Ki (MCL-1) [nM]	Ki (BCL-2) [nM]	Ki (BCL-XL) [nM]	Binder
4.8	91.8	9.5	Ac-IWIAQALR[R8]IGDAFN[S5]Y[Phe(4-F)]A-NH2 (staple 9-16; SMILES CC[C@H](C)[C@H](NC(C)=O)C(=O)N[C@@H](Cc1c[nH]c2ccccc12)C(=O)N[C@H](C(=O)N[C@@H](C)C(=O)N[C@@H](CCC(N)=O)C(=O)N[C@@H](C)C(=O)N[C@@H](CC(C)C)C(=O)N[C@@H](CCCNC(=N)N)C(=O)N[C@]1(C)CCCCCCC=CCCC[C@@](C)(C(=O)N[C@@H](Cc2ccc(O)cc2)C(=O)N[C@@H](Cc2ccc(F)cc2)C(=O)N[C@@H](C)C(N)=O)NC(=O)[C@H](CC(N)=O)NC(=O)[C@H](Cc2ccccc2)NC(=O)[C@H](C)NC(=O)[C@H](CC(=O)O)NC(=O)CNC(=O)[C@H]([C@@H](C)CC)NC1=O)[C@@H](C)CC) [SEQ ID NO: 1710]
3.7	36.5	17	Ac-IW[hLeu]AQALR[R8]IGDAFN[S5]YYA-NH2 (staple 9-16; SMILES CC[C@H](C)[C@H](NC(C)=O)C(=O)N[C@@H](Cc1c[nH]c2ccccc12)C(=O)N[C@@H](CCC(C)C)C(=O)N[C@@H](C)C(=O)N[C@@H](CCC(N)=O)C(=O)N[C@@H](C)C(=O)N[C@@H](CC(C)C)C(=O)N[C@@H](CCCNC(=N)N)C(=O)N[C@]1(C)CCCCCCC=CCCC[C@@](C)(C(=O)N[C@@H](Cc2ccc(O)cc2)C(=O)N[C@@H](Cc2ccc(O)cc2)C(=O)N[C@@H](C)C(N)=O)NC(=O)[C@H](CC(N)=O)NC(=O)[C@H](Cc2ccccc2)NC(=O)[C@H](C)NC(=O)[C@H](CC(=O)O)NC(=O)CNC(=O)[C@H]([C@@H](C)CC)NC1=O, also called Ac-IWhLAQALR$r8IGDAFN$YYA-NH2) [SEQ ID NO: 1712]
4.6	38.9	20.9	Ac-IW[Chg]AQALR[R8]IGDAFN[S5]YYA-NH2 (staple 9-16; SMILES CC[C@H](C)[C@H](NC(C)=O)C(=O)N[C@@H](Cc1c[nH]c2ccccc12)C(=O)N[C@H](C(=O)N[C@@H](C)C(=O)N[C@@H](CCC(N)=O)C(=O)N[C@@H](C)C(=O)N[C@@H](CC(C)C)C(=O)N[C@@H](CCCNC(=N)N)C(=O)N[C@]1(C)CCCCCCC=CCCC[C@@](C)(C(=O)N[C@@H](Cc2ccc(O)cc2)C(=O)N[C@@H](Cc2ccc(O)cc2)C(=O)N[C@@H](C)C(N)=O)NC(=O)[C@H](CC(N)=O)NC(=O)[C@H](Cc2ccccc2)NC(=O)[C@H](C)NC(=O)[C@H](CC(=O)O)NC(=O)CNC(=O)[C@H]([C@@H](C)CC)NC1=O)C1CCCCC1, also called Ac-IWChgAQALR$r8IGDAFN$YYA-NH2) [SEQ ID NO: 1713]
19.8	24.8	7.2	Ac-IW[αMeL]AQALR[R8]IGDAFN[S5]YYA-NH2 (staple 9-16; SMILES CC[C@H](C)[C@H](NC(C)=O)C(=O)N[C@@H](Cc1c[nH]c2ccccc12)C(=O)N[C@@](C)(CC(C)C)C(=O)N[C@@H](C)C(=O)N[C@@H](CCC(N)=O)C(=O)N[C@@H](C)C(=O)N[C@@H](CC(C)C)C(=O)N[C@@H](CCCNC(=N)N)C(=O)N[C@]1(C)CCCCCCC=CCCC[C@@](C)(C(=O)N[C@@H](Cc2ccc(O)cc2)C(=O)N[C@@H](Cc2ccc(O)cc2)C(=O)N[C@@H](C)C(N)=O)NC(=O)[C@H](CC(N)=O)NC(=O)[C@H](Cc2ccccc2)NC(=O)[C@H](C)NC(=O)[C@H](CC(=O)O)NC(=O)CNC(=O)[C@H]([C@@H](C)CC)NC1=O, also called Ac-IWAmLAQALR$r8IGDAFN$YYA-NH2) [SEQ ID NO: 1706]
5.2	48.3	8.4	Ac-[αMeL]WIAQALR[R8]IGDAFN[S5]YYA-NH2 (staple 9-16; SMILES CC[C@H](C)[C@H](NC(=O)[C@H](Cc1c[nH]c2ccccc12)NC(=O)[C@](C)(CC(C)C)NC(C)=O)C(=O)N[C@@H](C)C(=O)N[C@@H](CCC(N)=O)C(=O)N[C@@H](C)C(=O)N[C@@H](CC(C)C)C(=O)N[C@@H](CCCNC(=N)N)C(=O)N[C@]1(C)CCCCCCC=CCCC[C@@](C)(C(=O)N[C@@H](Cc2ccc(O)cc2)C(=O)N[C@@H](Cc2ccc(O)cc2)C(=O)N[C@@H](C)C(N)=O)NC(=O)[C@H](CC(N)=O)NC(=O)[C@H](Cc2ccccc2)NC(=O)[C@H](C)NC(=O)[C@H](CC(=O)O)NC(=O)CNC(=O)[C@H]([C@@H](C)CC)NC1=O) [SEQ ID NO: 1705]
34.6	23.1	4	Ac-IWIAQALR[R8][hhL]GDAFN[S5]YYA-NH2 (staple 9-16; SMILES CC[C@H](C)[C@H](NC(C)=O)C(=O)N[C@@H](Cc1c[nH]c2ccccc12)C(=O)N[C@H](C(=O)N[C@@H](C)C(=O)N[C@@H](CCC(N)=O)C(=O)N[C@@H](C)C(=O)N[C@@H](CC(C)C)C(=O)N[C@@H](CCCNC(=N)N)C(=O)N[C@]1(C)CCCCCCC=CCCC[C@@](C)(C(=O)N[C@@H](Cc2ccc(O)cc2)C(=O)N[C@@H](Cc2ccc(O)cc2)C(=O)N[C@@H](C)C(N)=O)NC(=O)[C@H](CC(N)=O)NC(=O)[C@H](Cc2ccccc2)NC(=O)[C@H](C)NC(=O)[C@H](CC(=O)O)NC(=O)CNC(=O)[C@H](CCCC(C)C)NC1=O)[C@@H](C)CC) [SEQ ID NO: 1702]
10.9	36.6	17.2	Ac-IW[tBuAla]AQALR[R8]IGDAFN[S5]YYA-NH2 (staple 9-16; SMILES CC[C@H](C)[C@H](NC(C)=O)C(=O)N[C@@H](Cc1c[nH]c2ccccc12)C(=O)N[C@@H](CC(C)(C)C)C(=O)N[C@@H](C)C(=O)N[C@@H](CCC(N)=O)C(=O)N[C@@H](C)C(=O)N[C@@H](CC(C)C)C(=O)N[C@@H](CCCNC(=N)N)C(=O)N[C@]1(C)CCCCCCC=CCCC[C@@](C)(C(=O)N[C@@H](Cc2ccc(O)cc2)C(=O)N[C@@H](Cc2ccc(O)cc2)C(=O)N[C@@H](C)C(N)=O)NC(=O)[C@H](CC(N)=O)NC(=O)[C@H](Cc2ccccc2)NC(=O)[C@H](C)NC(=O)[C@H](CC(=O)O)NC(=O)CNC(=O)[C@H]([C@@H](C)CC)NC1=O, also called Ac-IWTbaAQALR$r8IGDAFN$YYA-NH2) [SEQ ID NO: 1711]
